Test results published in patent publication US20080213817A1 (published 2008).

Target: T1, mitogen-activated protein kinase/ERK kinase kinase 1 (MEKK1) (mouse, UniProt P53349 2-1493)
T1 construct: Endogenous protein co-immunoprecipitated from mouse thymocyte / T cell lysates, not a recombinant construct; also called MEK kinase 1; MAPK/ERK kinase kinase 1
T1 sequence (looked up): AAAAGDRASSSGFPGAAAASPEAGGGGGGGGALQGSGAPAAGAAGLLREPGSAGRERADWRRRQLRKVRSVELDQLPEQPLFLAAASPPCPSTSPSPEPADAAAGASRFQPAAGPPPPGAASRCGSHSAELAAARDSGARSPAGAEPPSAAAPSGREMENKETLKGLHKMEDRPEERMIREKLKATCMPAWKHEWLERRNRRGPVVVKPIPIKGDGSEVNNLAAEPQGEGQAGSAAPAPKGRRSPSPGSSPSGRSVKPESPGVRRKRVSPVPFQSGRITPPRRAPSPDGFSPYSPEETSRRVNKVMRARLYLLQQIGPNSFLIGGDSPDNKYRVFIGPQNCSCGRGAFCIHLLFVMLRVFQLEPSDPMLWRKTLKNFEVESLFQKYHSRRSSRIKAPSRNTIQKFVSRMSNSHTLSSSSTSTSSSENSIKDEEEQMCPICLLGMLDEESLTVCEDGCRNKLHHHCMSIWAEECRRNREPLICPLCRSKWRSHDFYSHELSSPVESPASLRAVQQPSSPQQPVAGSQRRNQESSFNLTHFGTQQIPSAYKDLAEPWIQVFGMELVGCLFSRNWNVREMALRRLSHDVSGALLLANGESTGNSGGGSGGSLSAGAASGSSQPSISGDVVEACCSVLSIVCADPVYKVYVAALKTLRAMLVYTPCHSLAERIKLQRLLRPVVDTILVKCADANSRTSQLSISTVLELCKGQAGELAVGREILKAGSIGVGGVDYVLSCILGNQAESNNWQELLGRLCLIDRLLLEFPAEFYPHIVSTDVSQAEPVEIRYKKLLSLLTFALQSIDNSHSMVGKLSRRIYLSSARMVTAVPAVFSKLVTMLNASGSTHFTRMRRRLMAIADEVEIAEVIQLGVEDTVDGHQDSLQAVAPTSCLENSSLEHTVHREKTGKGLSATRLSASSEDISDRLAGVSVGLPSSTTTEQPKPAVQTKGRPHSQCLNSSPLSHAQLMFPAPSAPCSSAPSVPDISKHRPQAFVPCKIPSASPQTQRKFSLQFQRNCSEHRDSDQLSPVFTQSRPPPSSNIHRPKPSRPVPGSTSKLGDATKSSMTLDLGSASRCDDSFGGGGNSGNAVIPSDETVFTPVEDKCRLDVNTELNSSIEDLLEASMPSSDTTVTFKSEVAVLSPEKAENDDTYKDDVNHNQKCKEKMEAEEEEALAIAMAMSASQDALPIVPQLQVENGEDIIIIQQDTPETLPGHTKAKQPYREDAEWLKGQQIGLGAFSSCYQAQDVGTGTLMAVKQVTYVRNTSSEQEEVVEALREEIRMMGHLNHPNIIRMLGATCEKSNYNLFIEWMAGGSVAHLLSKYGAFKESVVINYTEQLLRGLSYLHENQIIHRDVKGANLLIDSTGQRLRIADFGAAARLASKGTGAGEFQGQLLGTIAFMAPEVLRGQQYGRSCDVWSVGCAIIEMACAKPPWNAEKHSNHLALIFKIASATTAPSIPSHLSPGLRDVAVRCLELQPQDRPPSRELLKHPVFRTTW
Test: co-immunoprecipitation (summary of the results)

- binding result: binds
B1: E3 ubiquitin ligase Itch (enzyme)
chain: not shown
notes: Endogenous protein from mouse thymocytes / T cells; also called Itchy E3 ubiquitin protein ligase; AIP4
